Results published in a protein production outcome set (Wang et al. 2014).

Assay: label from the status in PepcDB records

Sequence	protein production
MISAWLLVLISITYISLLFLIAWAGDRHPGLYKRRLARTHIYGLSLAVYFTSWTFYGAVGRATQEGLAFLPIYLGPLLVFIFFAPLLRRIIYISKRNNSTSIADFIASRYGKSQVLAAMVAIFALIGSVPYIALQLKAIALGFNVLSGTGDSYQELSTAAWNDSAWYITLALAVFTVLFGTRHLESTEHHRGMIQAVAFESLIKLIAFVAVGLFVGYGLYDGFGDLFTRVREADLMGTLTTESLEAPAFLTQTLVAMLAIICLPRQFHVMVVENTDHRDFEVARWAMPIYLIIASAFVIPIAAAGLLSTHLAGSDPDIVILQLPIMAGEHWLAVLAFLGGGSAAAAMVIVCSVAIATMVSNEIIMPGLLKFFRPGMNRRTDLSFLLLTIRRVAIFVVLLTAYGFYRMAGEDYSLTAFGLLSFAAAAQFGPALVGGILWRQGNFTGAAWGLGLGFLMWCYTLLLPALVSTGWVADTLIEHGLFGWNWTRPTALFGSELDQISHGILWSLGVNTGAYILLSLITRQRIREKIQIAAFFHDAQPKAENAQHQSWQGEILTSDLQALTDRFMGEERSESIFRNYERRNAIRLYPQRPASTHLMKYIERQLASVIGASTARVVLESTLTGRDMQIEDVVSIVDEASQAMTFSRELLQSAIENISLGVSVVNHQQQLVVWNHRYLELFNYPKGFVRVGRPVEDLMRYNLTNANLSARRIDDIVENRCNSMREGKPMSYERQRPDGTVVRVDGSPIPGGGYVTTFQDITAMRRTEQALKETNIYLEQRVRERTQELQVINEQMLKAKSVAEQANQSKTRFLASASHDLLQPLNAARLFTSALSGKVNEGETRDLVDHIDSSLGAAEEIISTLLDISKLDAGALEPDIGVFPVNELLRHLATEFSAIAKDQGLELHVVPSTAWVRSDAKLLRRVVQNFLSNAIRYTASGKILMGCRRLKGYLRIEVWDTGPGMSDDQLNHIFEEFRRFQHGRDKKGLGLGLAIVDRISGMLNHPVTVHSIQGKGSVFGITVPVAPADQSRLDAQKSGSSSRRVSNLGGLHVLCIDNDAAILQGMVALLGNWQCDVTAAESLDDALTKLDGRQPDIILADYQLDDNRNGLDAMDSIREHLGNDIPGILITGYMAPEVRDDAGNRGYQVLYKPVKPAALRALVNKLLKQKRS	failed
MISGDTLSAKKPKSVPQEEDQDPPSQSIALLDNHTDSSGSDSSTRSISSCFIFTSLLLVTCIALSAASAFAFLFFSSQKPVLSLNQISKSPAFDRSVARPLKKLDKPVVLLISSDGFRFGYQFKTKLPSIHRLIANGTEAETGLIPVFPTLTFPNHYSIVTGLYPAYHGIINNHFVDPETGNVFTMASHEPEWWLGEPLWETVVNQGLKAATYFWPGSEVHKGSWNCPQGLCQNYNGSVPFDDRVDTILSYFDLPSNEIPSFMTLYFEDPDHQGHQVGPDDPQITEAVVNIDRLIGRLIDGLEKRGIFEDVTMIMVGDHGMVGTCDKKLVVLDDLAPWIKIPSSWVQYYTPLLAIQPPSGHDAADIVAKINEGLSSGKVENGKYLKVYLKEDLPSRLHYVDSDRIPPIIGLVDEGFKVEQKKSKAKECGGAHGYDNAFFSMRTIFIGHGPMFSKGRKVPSFENVQIYNVISSILGLKAAPNNGSDEFSSSILLPRV	failed
MISGFSMHSSAHYRQLLARLPQIAVAADQFEVLNSAKDFKSRILSLIASARQRIYLVALYLQDDEAGREILSALYAAKQRNPALDVKVFVDFHRAQRGLIGKGKQGGNHLMYQEMAARHEHQIAIYGVPVKGRELLGVLHLKGFIFDDTLLYSGASLNDIYLHQQDRYRFDRYHQITSPELTRSMVNYVDDLFLRSEAVQRLDRTDIPSAKQLKGPIRRFKHNLRLGQYRFDTMPVNSQEVAITPMSGLGKRGNQLNKMIRTLVRATEREIFICTPYFNPPKELNKDIEALLKRGCKVTIVVGDKTANDFFIPPEEKFSTIGGLPYLYETNLRKFAERNQHHIDAGRLNLMLWCCERNSYHLKGIFVDDEWALLTGNNLNPRAWALDLENGLLVYDRRHLLRPQFNAERENILANTKRISHFDQIEQIQDYPDQVRKLLARIHRVKAHILLKRII	failed
MISGISGILCVVLVSKGKISNYFFGLIFAYTYFYVAWGSNFLGEMNTVLYVYLPSQFIGYFMWKANMQNSDGGESVIAKALTVKGWMTLIVVTTVGTLLFVQALQAAGGSSTGLDGLTTIITVAAQILMILPLS	failed
MISGSATASHGRVLLPSQRERRPVSTGSNILRFRETVPRQFSLMMVTKATAKYMGTKMREEKLSEMIEEKVKEATEVCEAEEMSEECRVAWDEVEEVSQARADLRIKLKLLNQDPLESFCQENPETDECRIYED	failed
MISNNPNHTEYDTWAWLYNQTMGPEYSQNQLKPLEKILLPQIKPNAKILDLCCGTGQLVQTLINRGYQITGVDNSSEMLNYARKNAPNGQFLLADARYFELPLSFDAAFSTSAALNHIMTIPELQQVFQRVYSALKENGWFLFDINHHQQMQRWWRGKIAEGEIENKYAWMVTPNYNPEERQGYFQVTMFQKKTKPSSARIIKIIWRLLSPILNHNLLYKLRIKLLSVFQAKEKNWQRMDEKYFVRGHIPEEIKIALQQTGFTDIQILTLEGNPTIDDRHSAYFLCRKPVNI	failed
MISSLSASSSLVSSFVAVKATPVTGPLIPRRDLLSIRIRASSNQNSSGYCFPEKFKSFAKSAILIGAAVSMTGKFSTLPVKAESPVTTIEKTYEEVKEEKLSEITPLSELLDSTPEAVETLRSLLQQKLEKGEDEEALKLLERLVAAQPEETEWKFLMARLLGEMGRPENARQMFEEILQRNPLSFEALFENALLMDRSGEGNAVLQRLEDALAVAEAEYLVKEARDVRLIIAQIHFLQKNVDEALKSYEQLTKEDPKDFRPYFCRGMIYSLLDKNVEAKEQFAKYRELSPKKFEVEGYLRTPLSKMKLFGGSEEN	failed
MISVAQYLEAATRPNTERAYAAATRHFEIEWGGHLPTTAEQVARYLAAYAGQLALNTLRHRLAALAQWHQAHGFADPTRAPVVRKVLKGIQTVHPSQEKRATPLQLTQLGQVVDWLDGAATAAGTRDDAAGRLRHMRDRAFVLLGFWRGFRGDELVRLQVQDLELVAGEGMTCFLPHSKSDRQHAGTTYKVPALSRWCPVAATMAWVAAAALHEGPLFRAVNQWGGIAAAPLHPNSLVPLLRRIFREAGLSSPNDYSGHSLRRGFAGWANANGWDVKALMEYVGWRDVHSAMRYLDGADPFARQRIEASVSPATPPLLALAAPAPDPVPTTAVEATVTLTRFNSRVRGLAKAHRLIEQICLQPHQAQRLNADGTRYRLAIAAVDEAAFEETIAMLLDEMHRIADNHQCFLAVALRDEAGGRHWD	failed
MITIDPEYFEILKEFGAERVVRCYQCGTCTGICPVSTTDASFPRKPVLLSRFGVGEVIENFEEAWLCLSCNLCTEFCPRDVKPSETMLAIKRVLVENGKTPPYIRDFFQNIMKQKNPWGIGKFKREDWVKKSDVEVPKVKDNPEYEWLWFVGCAHAFENRNINVTLKMARILSDLGINFATLGREEGCCGNDVRRAGEEGLFEVLMEENIKTFGKYGVQRLFTHSPHCFNAFKNWYEGYEVKLFLEILRDAIKSGKLELKNKLDLTVTYHDSCYLGRYNGIYDLPREVLKLIPGVELVEMKSNRRMSLCCGGGAGNIVGDYPGEIQPARVRAQEAAETGANVLAVACPFCLLMLEDGVKTEKLDKQLVVKDIVELVYEAAYGEE	failed
MITLAQAEVGKVYTVESVQADIQTKKHLNNLGVVAGQAVVLVNYQNQNGIVLLHNSRIALTDTILQAIHVEERSANEKVWVSLDTLKVGERATIVGIHGQGAVKRRLMDMGLTKGTVIFIRKVAPLADPIEINVRGYELTLRKSEAELILVEKEESELEHHHHHH	failed
MITNKKCKGCGAFLNDQINTIGYTPKINETKTNLCQRCFKLIHYNKLEKVSTNLNQSIKETINTLNFSNLQIFAVLDILDLEHTIIDELKEYQNKIIFLVNKIDLLPQRYNSELVNENVVKTLINHGFIDPKIIYVSTHSNTSLKKVMDYIKNATNKKQKSIFFGKSNVGKSSLINALLALNKIKTKLTISSYTNTTINLNKINIQEHQILDAPGVCFDENILNYVRDEDNKSIMISYGAKAINYQINPQQALMISGLVGIQYLKGQKTTFTLYVSSQLDIHRCKLENFIMNFNKRYLLAKFNYLNQDLEFVDHLITLNKDQKTNICIAGLGLLVINAHAEQICIRLPKSVGLKVAKYAII	failed
MITQNIESLNNIAKIQHAANTDYLTDLANRRAFFRSAESRIKEYINKKVPYCLAMIDVDFFKKVNDTYGHDSGDQVLKVIALYMRKHFGAGLTARLGGEEFAVLLHGLDADYLHNKLDDFRREIAVSSIPAGDTSISITLSLGVVFDSEDELSKQMNEADNALYAAKENGRNQIVVFGAELDDLEHHHHHH	not failed
MITTIISSVVAFATTNIDDIFILLVLFSQVRTEVIRKEGRAVREKATRKKLYIVIGQYLGFSMIIFLSIIGSLSSFFIPVSWIGLLGFVPIYMGVKGLLSLRSYKSNEVIDNVTVSLFKVASITLANGADNISIYIPMFASQTLETNIVTLVIFFSMIAIWCFISYKLIKAPILAKVLEENCHIIVPIVLIGLGMFILFRSGTIGLFS	failed
MITTKLKLSVTNDYLLRINENRYVLIDTGYKEDWKLFLKRLKENGIKINEISYVILTHHHDDHVGFLNKLVSENKDIRVVMSDKTNELIKVGENDQTHGGGLINKRIEFLIRYKNMYVSKVLGVKKENNLKFPPYESRNNDIIFTGEVTLRELGIDLPGKIIETPGHTIDSISILFEDGDCFVGDAAANMLKLCGTKNCVIFIMDKKQYYESWDKMIKVGVKKVYPAHGGEFSVGRLKKNIWRNL	failed
MITTTIFPGRYVQGAGAINILEEELSRFGERAFVVIDDFVDKNVLGENFFSSFTKVRVNKQIFGGECSDEEIERLSGLVEEETDVVVGIGGGKTLDTAKAVAYKLKKPVVIVPTIASTDAPCSALSVIYTPNGEFKRYLFLPRNPDVVLVDTEIVAKAPARFLVAGMGDALATWFEAESCKQKYAPNMTGRLGSMTAYALARLCYETLLEYGVLAKRSVEEKSVTPALEKIVEANTLLSGLGFESGGLAAAHAIHNGLTVLENTHKYLHGEKVAIGVLASLFLTDKPRKMIEEVYSFCEEVGLPTTLAEIGLDGVSDEDLMKVAEKACDKNETIHNEPQPVTSKDVFFALKAADRYGRMRKNLT	not failed
MITVNFLILLLGLVFLVKGSDYFVKSASTIAKKLGVSEFVIGLTLVAIGTSIPELASSIAASIQQASGIVIGNVVGSNIANVGLIVGVAALLSPMKTEIDMLKRDGYIMLFSAVLFFVFAFNRELSMLEAGLFVLLYIAYVFFLFEEAEKYEGKLHFKEFITYFFKFKYINSAMQKLNGNRNRNSDSDRNSDSGNGNERLEGGFAKDIFTLVLSCAAIVIGAKYFVEESIFFAELLGIPDTVIGTTLVAVGTSLPELVVTVSAARQGYGSIALGNVIGSNITNIFLILGLSGLFYPLSVAEMSLFFTTPVMIAISLILLIFISTGWEIKRWEGVVLMMFYVAFLVVLFYI	failed
MITVVGTGTGAPLSADAARALAGAGLVVGGRRHLAAAALPDGAERIVLGPLAPALDAIEAALEKQRRVVVLASGDPGFFGIVRALAERFGAERLDVRPGVSSVATAFARLGLPWDDAVVVSAHGRDLRTALNVCRSRPKVAVLTGPGAGPAELGAALAHGFGARVLVVASALGDPEHERVERVTPAEAAARDWGTAVSVVLCLDASRALAPVRTVAGPPAGPARWALEEGDFAHRDSMITKFEVRALALARLGPRLGDLVWDVGAGSGSVAVECARLGAAVTAVEKTLDGVERIHANARAHGVDVHVVHGAAPDALTALPDPDAVFIGGGGRELPALVTACARRARRTVVVAMAALDRVPAVREALTGAGFGCDGVLLQSSRLAPLPGDVTRLAATNPVFLLWGARPPARTEGALQ	failed
